Laboratory results published in patent US7211424B1, “Mammalian Subtilisin/kexin isozyme SKI-1: a proprotein convertase with a unique cleavage specificity” (Institut de Recherches Cliniques de Montreal, priority 1999, dated 2007).
Read-outs that look alike come from different tables or passages of the source.

How the values were obtained:
[1] = target: T1, SKI-1 (Homo sapiens, UniProt Q14703); assay: Example 6: synthetic peptides examined as possible substrates of recombinant SKI-1; assay type: biochemical; set-up: made in house
T1 sequence (Q14703 187-1052): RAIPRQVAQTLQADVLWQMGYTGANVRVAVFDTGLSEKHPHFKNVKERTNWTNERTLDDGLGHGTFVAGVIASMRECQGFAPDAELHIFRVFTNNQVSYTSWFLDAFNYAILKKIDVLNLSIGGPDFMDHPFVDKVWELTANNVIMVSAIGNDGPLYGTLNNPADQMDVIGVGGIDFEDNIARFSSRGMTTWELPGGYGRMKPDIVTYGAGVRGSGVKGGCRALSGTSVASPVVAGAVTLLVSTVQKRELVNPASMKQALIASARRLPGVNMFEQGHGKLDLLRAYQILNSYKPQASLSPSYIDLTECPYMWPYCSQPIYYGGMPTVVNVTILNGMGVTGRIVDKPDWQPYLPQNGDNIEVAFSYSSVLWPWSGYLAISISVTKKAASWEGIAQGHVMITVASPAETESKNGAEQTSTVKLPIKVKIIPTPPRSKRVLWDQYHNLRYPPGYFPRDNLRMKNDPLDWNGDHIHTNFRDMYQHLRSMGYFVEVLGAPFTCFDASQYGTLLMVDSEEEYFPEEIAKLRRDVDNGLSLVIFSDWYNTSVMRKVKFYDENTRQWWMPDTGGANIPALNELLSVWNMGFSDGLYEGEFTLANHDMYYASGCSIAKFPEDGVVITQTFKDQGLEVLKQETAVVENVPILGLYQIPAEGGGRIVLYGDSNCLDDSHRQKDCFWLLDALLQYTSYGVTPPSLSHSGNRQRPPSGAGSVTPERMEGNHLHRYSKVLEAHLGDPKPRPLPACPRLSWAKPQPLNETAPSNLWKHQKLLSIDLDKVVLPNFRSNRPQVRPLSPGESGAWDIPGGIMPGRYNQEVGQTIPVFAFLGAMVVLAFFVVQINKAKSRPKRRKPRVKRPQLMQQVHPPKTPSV
Text: A large number of synthetic peptides based on potential cleavage sites in the hSKI-1 prodomain, proBDNF and the loop region of SREBP-2 were synthesized.
These peptides were examined as possible substrates of SKI-1.

[2] = target: T1, SKI-1; assay type: cell-based; set-up: The VV recombinant of full-length hSKI-1 has been described (10); expressed in transfected cells; host or cells: COS-7 cells co-infected with vv:BDNF and vv:SKI-1 (with vv:WT, vv:PIT or vv:PDX)
[3] = target: T2, SKI-1 (Homo sapiens, UniProt Q14703); assay type: biochemical
T2 sequence (Q14703 187-998 limits assumed): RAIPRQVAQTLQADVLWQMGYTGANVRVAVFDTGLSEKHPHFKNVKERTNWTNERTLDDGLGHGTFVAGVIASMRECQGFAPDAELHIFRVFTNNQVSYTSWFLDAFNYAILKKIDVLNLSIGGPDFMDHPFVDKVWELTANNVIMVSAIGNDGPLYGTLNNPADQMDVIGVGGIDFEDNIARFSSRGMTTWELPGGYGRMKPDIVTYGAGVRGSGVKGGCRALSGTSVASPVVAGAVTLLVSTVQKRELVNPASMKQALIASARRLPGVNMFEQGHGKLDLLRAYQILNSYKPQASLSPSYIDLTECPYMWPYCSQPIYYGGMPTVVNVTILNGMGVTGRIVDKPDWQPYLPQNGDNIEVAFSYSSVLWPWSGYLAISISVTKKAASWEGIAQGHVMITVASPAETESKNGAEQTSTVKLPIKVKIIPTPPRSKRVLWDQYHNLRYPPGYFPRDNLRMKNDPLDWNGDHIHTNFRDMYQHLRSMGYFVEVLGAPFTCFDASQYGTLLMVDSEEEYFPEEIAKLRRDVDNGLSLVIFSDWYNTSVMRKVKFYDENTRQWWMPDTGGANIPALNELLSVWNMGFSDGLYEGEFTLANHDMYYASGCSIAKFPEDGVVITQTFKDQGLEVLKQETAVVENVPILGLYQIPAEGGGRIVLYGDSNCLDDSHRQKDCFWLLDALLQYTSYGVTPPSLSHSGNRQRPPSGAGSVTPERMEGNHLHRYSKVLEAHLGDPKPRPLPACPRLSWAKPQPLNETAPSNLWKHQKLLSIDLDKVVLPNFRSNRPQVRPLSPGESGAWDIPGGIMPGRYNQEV

[4] = target: T1, SKI-1; details: previously established (ref. 10); cited from earlier work
[5] = target: T3, peptide X, Q-hSKI-1 (132-142): Abz-VFRSLKYAESD-Y(NO2)-A
T3 chain: XVFRSLKYAESDXA

[6] = target: T4, peptide XI, Q-hSKI-1 (134-142): Abz-RSLKYAESD-Y(NO2)-A
T4 chain: XRSLKYAESDXA

[7] = target: T5, BTMD-hSKI-1 (Homo sapiens, UniProt Q14703); assay type: biochemical
T5 sequence (Q14703 187-997 limits assumed): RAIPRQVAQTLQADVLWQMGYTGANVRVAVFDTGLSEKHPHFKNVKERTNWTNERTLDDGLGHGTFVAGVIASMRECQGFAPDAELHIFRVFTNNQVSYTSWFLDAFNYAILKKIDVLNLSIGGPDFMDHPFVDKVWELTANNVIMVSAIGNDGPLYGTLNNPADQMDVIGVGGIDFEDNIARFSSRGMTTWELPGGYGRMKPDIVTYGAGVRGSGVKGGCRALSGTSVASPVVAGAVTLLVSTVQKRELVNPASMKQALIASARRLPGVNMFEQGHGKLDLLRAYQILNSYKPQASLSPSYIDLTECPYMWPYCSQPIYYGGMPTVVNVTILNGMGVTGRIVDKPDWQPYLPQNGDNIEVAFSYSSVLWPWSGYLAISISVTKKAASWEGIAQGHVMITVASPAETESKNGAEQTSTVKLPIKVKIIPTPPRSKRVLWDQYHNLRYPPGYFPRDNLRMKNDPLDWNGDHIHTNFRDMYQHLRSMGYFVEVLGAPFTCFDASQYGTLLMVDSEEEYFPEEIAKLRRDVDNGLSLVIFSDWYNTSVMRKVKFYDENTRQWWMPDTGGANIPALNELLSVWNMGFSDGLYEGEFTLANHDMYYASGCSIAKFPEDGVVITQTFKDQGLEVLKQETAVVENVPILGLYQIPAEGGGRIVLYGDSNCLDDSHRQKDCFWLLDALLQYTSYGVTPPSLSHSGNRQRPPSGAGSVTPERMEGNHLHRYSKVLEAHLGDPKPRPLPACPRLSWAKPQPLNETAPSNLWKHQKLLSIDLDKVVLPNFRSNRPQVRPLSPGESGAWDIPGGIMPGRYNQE

Molecule: Ser-Ser-Arg-Arg-Leu-Leu↓Arg-Ala-Ile-Glu [(iv)]
- cleavage by the recombinant SKI-1 [1]: efficiently cleaved

Molecule: PQRKVFRSLKYAESD [IX]
- cleavage by the recombinant SKI-1 [1]: efficiently cleaved

Molecule: α1-antitrypsin Pittsburgh [α1-PIT]
- level of the 28 kDa BDNF product [2]: neither α1-PIT nor α1-PDX affect the level of the 28 kDa product

Molecule: c1cnc2c(c1)ccc1cccnc12 [O-Phenanthroline, o-phenanthroline]
- inhibition of the processing of proBDNF by SKI-1 ([3]; at 1 mM): 25%
- inhibition of the processing of proBDNF by SKI-1 ([3]; overnight 37° C., pH 6.0, PMSF 0.5 mM + pAPMSF 50 μM, o-phenanthroline 5 mM, EDTA 10 mM): effectively inhibit

Molecule: RGLT-MCA
- cleavage of fluorogenic MCA peptides lacking P′ residues [4]: does not cleave

Molecule: RSVL-MCA
- cleavage of fluorogenic MCA peptides lacking P′ residues [4]: does not cleave

Molecule: Ser-Gly-Ser-Gly-Arg-Ser-Val-Leu↓Ser-Phe-Glu-Ser [(x)]
- cleavage by the recombinant SKI-1 [1]: efficiently cleaved

Molecule: RGLTT-MCA
- cleavage of fluorogenic MCA peptides lacking P′ residues [4]: does not cleave

B1: 98 kDa shed form of SKI-1 (sSKI-1) (protein)
chain: RAIPRQVAQTLQADVLWQMGYTGANVRVAVFDTGLSEKHPHFKNVKERTNWTNERTLDDGLGHGTFVAGVIASMRECQGFAPDAELHIFRVFTNNQVSYTSWFLDAFNYAILKKIDVLNLSIGGPDFMDHPFVDKVWELTANNVIMVSAIGNDGPLYGTLNNPADQMDVIGVGGIDFEDNIARFSSRGMTTWELPGGYGRMKPDIVTYGAGVRGSGVKGGCRALSGTSVASPVVAGAVTLLVSTVQKRELVNPASMKQALIASARRLPGVNMFEQGHGKLDLLRAYQILNSYKPQASLSPSYIDLTECPYMWPYCSQPIYYGGMPTVVNVTILNGMGVTGRIVDKPDWQPYLPQNGDNIEVAFSYSSVLWPWSGYLAISISVTKKAASWEGIAQGHVMITVASPAETESKNGAEQTSTVKLPIKVKIIPTPPRSKRVLWDQYHNLRYPPGYFPRDNLRMKNDPLDWNGDHIHTNFRDMYQHLRSMGYFVEVLGAPFTCFDASQYGTLLMVDSEEEYFPEEIAKLRRDVDNGLSLVIFSDWYNTSVMRKVKFYDENTRQWWMPDTGGANIPALNELLSVWNMGFSDGLYEGEFTLANHDMYYASGCSIAKFPEDGVVITQTFKDQGLEVLKQETAVVENVPILGLYQIPAEGGGRIVLYGDSNCLDDSHRQKDCFWLLDALLQYTSYGVTPPSLSHSGNRQRPPSGAGSVTPERMEGNHLHRYSKVLEAHLGDPKPRPLPACPRLSWAKPQPLNETAPSNLWKHQKLLSIDLDKVVLPNFRSNRPQVRPLSPGESGAWDIPGGIMPGRYNQ
- Km(app) [5]: 31.3 µM
- Vmax(app) [5]: 34 µmol/h
- Vmax(app)/Km(app) [5]: 1.1 h^-1L^-1
- cleavage of quenched fluorogenic peptide (mass spectrometry) [5]: both peptides were cleaved at the RSLK↓ (SEQ. ID. NO. 100) site by shed SKI-1 derived from HK293 cell transfects, but not by medium obtained from HK293 empty vector transfectants
- Km(app) [6]: 8.7 µM
- Vmax(app) [6]: 56.9 µmol/h
- Vmax(app)/Km(app) [6]: 6.5 h^-1L^-1
- cleavage of quenched fluorogenic peptide (mass spectrometry) [6]: both peptides were cleaved at the RSLK↓ (SEQ. ID. NO. 100) site by shed SKI-1 derived from HK293 cell transfects, but not by medium obtained from HK293 empty vector transfectants

B2: proBDNF: 32 kDa human pro-brain-derived neurotrophic factor, precursor substrate (protein, UniProt P23560 19-247, looked up)
pro-form: APMKEANIRGQGGLAYPGVRTHGTLESVNGPKAGSRGLTSLADTFEHVIEELLDEDQKVRPNEENNKDADLYTSRVMLSSQVPLEPPLLFLLEEYKNYLDAANMSMRVRRHSDPARRGELSVCDSISEWVTAADKKTAVDMSGGTVTVLEKVPVSKGQLKQYFYETKCNPMGYTKEGCRGIDKRHWNSQCRTTQSYVRALTMDSKKRIGWRFIRIDTSCVCTLTIKRGR
modifications: pro-form
notes: 32 kDa human pro-brain-derived neurotrophic factor, precursor substrate
- intracellular cleavage of precursor by SKI-1 [2]: could be cleaved intracellularly by SKI-1

B3: ˜14 kDa peptide: ˜14 kDa N-terminal fragment of the SKI-1 prosegment, major secreted form (protein)
chain: GKKHLGDRLEKKSFEKAPCPGCSHLTLKVEFSSTVVEYEYIVAFNGYFTAKARNSFISSALKSSEVDNWRIIPRNNPSSDYPSDFEVIQIKEKQKAGLLTLEDHPNIKRVTPQRKVFRSL
- inhibitory activity of the RP-HPLC-fractionated native prosegment [7]: not inhibitory
